Source: the nanobody polyreactivity screen of Harvey et al. (2022)

Assay: yeast display, Sf9 membrane polyspecificity reagent, FACS + sequencing; frameworks hold sequencing errors
In short: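 Sorting gates, low and high (top ~1%), were placed on anti-HA fluorescence to track expression and on streptavidin fluorescence to track reagent binding. A clone's polyreactivity label is taken from the gate it came out of. The reagent was 10% biotinylated, detergent-solubilized Sf9 membrane, applied for 1 hour at 4 °C to galactose-induced yeast display cells.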

| Sequence | polyreactivity (PSR sort gate) |
| --- | --- |
| QVQLVDSGGGLVQAGGSLRLSFAASGSTFHTYAMGWYRQAPGTERELVATNTWDGGRTYYADSVKGRFTISRDIAKYTVYLQMNSLKPEDTAVYYCASVYWSIEMDYWGQGSQVTVSS | low polyreactivity |
| QVQLVDSGGGLVQAGGSLRLSSAASGITFQRYAMGWYRQAPGKERELVAGINGRGGSTYYADSVKGRFTISRDNAKNTVYLQMNSLKPEDTAVYYCNAVYAGRYFGFDYWGQGTQVTVSS | high polyreactivity |
| QVQLVDSGGGLVQAGGSLRLTCAASGSTYYRNAMGWYRQAPGKETEFVAAISFRGGGTYADSVKGRFTISRDNAKNTVYLQMNSLKPDDTAVYYCDSDHLSYRRRYEYWGQGTKVTVSS | low polyreactivity |
| QVQLVDSGGGLVQAGGSLRVSCAASGIIFYYNAMGWYRQAPGKEREFVASISSRGGSTYYADSVKGRFTISRDNSKNTVYLQMNSLKPEDTAVYYCAAAFDWRRQRYNYWGQGTQVTVTS | high polyreactivity |
| QVQLVDSGGGLVQAGGSLSLSCAASGSTFGYYSMGWYRESPGKERELVAAITWSGDSTYADSVKGRFTISRDNAKNTVYLQMNSLKPEDTAVYYCARRGFLGHWPRPSYDYWGQGTQVTVSS | low polyreactivity |
| QVQLVDSGGGLVQAGVSLRISCAASGIIIRYYGMGWYRQAPGKERELVARIRWTGGSTYYADSVKGRFTISRYNAKNTVYLQMNSLKQEETAVYYCAADIWQYSRIANSHPYDYWGQGTQVTVSS | low polyreactivity |
| QVQLVDSGGGLVQARGSLRLSCAASGYNFGNAMGWYRQPPGQEREFVAAISSSGSSTYYADSVKGRFTISRDNAKNTVYLQMNSLKPEDTAVYYCAKSRRSAAPKYDYWGQGTQVTVSS | high polyreactivity |
| QVQLVDSGGGLVQEGGSLRLSCAASGLTFYSNAMGWYRQARGKERELVARISTGGSTYADSVKGRFTISRDNAKNTVYLQMNSLKPEVTAVYYCAAEYNLRTYWGDYWGQGTQVTVSS | low polyreactivity |
| QVQLVDSGGGLVQEVGSLRLSCAASGSTFPFNAMGWYRQAPGKERELVATISGRGGSTYYADSVKGRFTISRDNAKNTVYLQMNSLKPEDTAVYYCAAEIHDRFDSWGQGTQVTVSS | low polyreactivity |
| QVQLVDSGGRLVQAGGSLRLSCAASGRIFVNNAMRWYRQAPGKERELVAAITRGGSTYYADSVKGRFTLSRDNAKNTVYLQMNSLKPEDTAVYYCDSDYQRNDFRWYDYWGQGTHVTVSS | low polyreactivity |
| QVQLVDSGGRLVQAGGSLRLSSPASGLIISAYAMGWYRQAPGKEMEFVAAISRSGGITYYADSVKGRFTISRDNAKNTVYLQMNSLKPEDTAVYYCNARLYDPTLKFGYWGQGTQVTVSS | high polyreactivity |
| QVQLVDSGGVLVQAGGSLSLSCAASGITFPINAMGWYRQAPGKEREFVATISFSGASTYYADSVKGRFTISRDNAKNSVYLQMNSLKREDTAVYYCAARWKPPYWGRYYYWGQGTQVTVSS | high polyreactivity |
| QVQLVDSGRGLVQAGGSLRLSCAASGSIFYYNTMGWYRQAPVKERELVAAISSSDGSTYYADSVKGRFTISRDNAKNTVYLQMNSLKPEDTAVYYCNADLIYGEEYDYWGQGTQVTVSS | low polyreactivity |
| QVQLVDSVGGLVQAGGSLRLSCAASGFIFGRNSMGWYIQAPGKERELVAGISSRGGRTYYADSVKGRFTISRDNAKNTVYLQMNSLKPEDTAVYYCAAAGLTDYVRYDYWGQGTQVTVSS | high polyreactivity |
| QVQLVDSVGGLVQAGGSLRLSCAASGFTFGVNVMGWYRQEPGKEREFVAAITWSGDSTYYADSVKGRFTISRDNAKNTVYLQMNSLKPEDSAVYYCAADGNTWPADFLSYYFEFDEYWGQGTQVTVSS | low polyreactivity |
| QVQLVDSVGGLVQAGGSLRLSCAASGRIFRYYAMGWYRQAPRKERELVAAITWSGGSTYYADSVKGRFTISRDNAKNTVYLQMNSLKPEDTAVYYCNADSVYAGFDYWGQGTQVTVSS | low polyreactivity |
| QVQLVDTGGGLVQAGGSLRLSCAASGSTFYFNAMGWYRLAPGKERELVAAISYSGGSTYYADSVKGRFTISRDNAKNTVYFQMNSLKPEDTAVYYCNARGLKSYYPGYWFRGDDWGQGTQVTVSS | high polyreactivity |
| QVQLVEAGAGLVQAGGSLRLSCAASGGIFGQYTRGWSRHAPGKERELVAGISTSGGSTYYADSVKGRFTISRDYAKNTVYLQMNSLKPGDTAVYYCAAGSYRKRVTNYSYRTPYGYWGHGTQVTVSS | high polyreactivity |
| QVQLVEAGGGFVQAGGSLRLSCAASGFTFDYYAMGSYRQAHGKERELVAAITLNGGSTYYADSVKGRFTISRDNAKNTVYLQMNSLKPEDPAVYYCAADGSGYYDWYYYWGHGTQVTVSS | low polyreactivity |
| QVQLVEAGGGLVQAGGSLRLSCAASGFIFYGYMGWYIQAHGKERELVAAISYTGGSTYYADSVKGRFTISRDNAKNTVYLQMISLKPEDTAVYYCARDWRTKWFGYWGQGTQVTVSS | low polyreactivity |
| QVQLVEAGGGLVQAGGSLRLSCAASGIIFGFYAMGWYRQAPGKERELVAAITNDGGNTNYADSVKGRFTISRDNAKNTVYLQMNSLKPEDTAVYYCNADRTQDRTPYTYATFDYWGQGTQVTVSS | low polyreactivity |
| QVQLVEAGGGLVQAGGSLRLSCAASGPIFPLYAKGWYRQAPGKERELVAAISSGGTTYYADSVKGRFTISRDNAKNTVYLQMNSLKQEDTAVYYCARRPAQRLGRFDYWGQGTQVTVSS | low polyreactivity |

| Sequence | polyreactivity (PSR sort gate) |
| --- | --- |
| QVQLVEAGGGLVQAGGSLRLSCAASGRTFSFNAMGCYRQAPGKERELVAAISRRGTSTYYADSVKGRFTISRDNAKNSVYLQMNSLKPEYTAVYYCAARSTYTRREYDYWGQGTQVTVSS | high polyreactivity |
| QVQLVEAGGGLVQAGGSLRLSCAASGSTFKRYAMGWYRQAPGKERELVASISSGGSTNYADSVKGRFTISRDNAKNTVYLQMNSLKPEDTAVDYCAVSYRSFRYYWERYYSWGQGTQVTVSS | high polyreactivity |
| QVQLVEAGGGLVQAGGSLRLSCAASGSTLVYNDMGWYRQAPGKEREFVAAIRSNDGSTYYADSVKGRFTISRDNAKNTVYLQMNSLKPEDTAVYFCNKDVWDGYDWPEFDYWGQGTQVTVSS | low polyreactivity |
| QVQLVEAGGGLVQAGGSLRLSCASSGSIITVYDMGWYRQPPGKERELVATITGSDGRTDYADSVKGRFTISRDNAKNTVYLQMNSLKPEDTAVYYCAAHVFQWKNRQSLLFDQGYYWGQGTQVTVSS | low polyreactivity |
| QVQLVEAGGGLVQAGGSLRLSGAASGRTFSLYAMGWYRQAPGKERELVAAITVSGGSTYYADSVKGRFTISRDNAKNTVYLQMNSLKPEDTAVYYCAAEGQPFRYYLLDYWGQGTQVTVSS | low polyreactivity |
| QVQLVEAGGGLVQAGGSLRLTCAASGSIISRYAMGWYRQAPGKEREFVAAISSSGGSTYYADSVKGRFTISRDNAKNTVDVQMNSLKPEDTAVYYCARYAYKVPIMGYWGQGTQVTVSS | high polyreactivity |
| QVQLVELGGGLVQAGGSLRLSCAASGRIFTHNAMGWYRQAPGKDRELVAAISYSGVSTYYADSVKGRFTISRDNAKNTVYLQMNSLKPEDTAVYYCARRYWYPDAFYRYDYWGQGTQVTVSS | low polyreactivity |
| QVQLVEPGGGLVQAGGSLRLSCAASGRTFYRYAMGWYRQAPGKERELVAAITWSGGRTYYADSVKGRFTMSRDYAKNTVYLQMNSLKPEDTAVYYCAADNSYRGYHSPYDYWGQGTQVTVSS | low polyreactivity |
| QVQLVERGGGLVQAGGSHRLSCAASGRIFPGYAKGWYRQAPGKELELVAAISRIGGDTYYADSVKGRFTISRDNAKNTVYLQMNSLKPEDTPVYYCAARYGRHRVSWYATWRYGYWGQGTQVTVSS | low polyreactivity |
| QVQLVESAAGLVLAGGSLRLSCAASGSIFRFYAMGWSRQAPGQERELVAGITLSGASTYYADSVKGRFTISRDNAKNTVYLQMNSLKPEDTAVYYCAKRYRLDGFYYWGQGTQVTVSS | high polyreactivity |
| QVQLVESAAGLVQAGGSLRLSCAASGGIFWVYAMGWYRQAPGKERELVAAISNSDTSTSDADSVKGRFTISRDTAKNTVYLQMYSLKPEDTAVYNCNGDSPSLSGDIWGQGTQVTVTS | low polyreactivity |
| QVQLVESAAGLVQAGGSLRLSCAASGIIFSKYAMGWYRQAPGKERELVAASSSSGGSTYYADSVKGRFTISRDNAKNTVYLQMNSLKPEDTAVYYCAKGGGPNSRGYWGQGTQVTVSS | high polyreactivity |
| QVQLVESAAGLVQAGGSLRLSCAASGLILDEYAMGWYRQAPGKEMELVAAISWSGGSTYYADSVKGRFTISRDNAKNTVYLQMNSLKPEDTAVYYCAADRVWFSDNSYYYWGQGTQVTVSS | high polyreactivity |
| QVQLVESAAGLVQAGGSLRLSCAASGRIFGYYTMGWYRQAPGKERELVAAINGRGTSTYYADSVKGRFTISRDNAKYTVYLQMNSLKPEDTAVYYCAAQLYYYGQYKHFDYWGQGTQVTVSS | high polyreactivity |
| QVQLVESAAGLVQAGVSLRLSCAASGFTLFYYAMGWYRQEPGKERELVAGISRRGGSTYYADSVKGRFTISRDNEKNTVYLQMNSLKPEDTAVYYCAAGLCGYKSDTRGDYWGQGTQVTVSS | low polyreactivity |
| QVQLVESAGGIVQAGGSLRLSCAASGITFPGNAMGWYRPAPGKERELVAAIDCYGGSTYYADTVKGRFTISRDNAKNTVYLQLNSLKPEDTAVYYCATDEYFSYYGYFLDAYWGQGTQVTLSS | low polyreactivity |
| QVQLVESAGGIVQEGGSLRLSCAASGGTFTNYALGWYRQAPGKERELVAAITDSGAHTYYADSVKGRFTISRDNAKNKVYLQMYCLKPEDTAVYYCNAELDLYTDFDYWGQVTQVTVSS | low polyreactivity |
| QVQLVESAGGLVKEGGSLRLSCAASGRTFGVNAMGRYRQAPGKERELVAAITWSGDSTYYADSVKGRFTISRDNAKNTVYLQMNSLKPEDTAVYYCAKKSSLFKHVVRYAYWGQGNQVTVSS | low polyreactivity |
| QVQLVESAGGLVQAGASLRLSCAPSGSIFRINAMGWYRQAPGKERELVAAISTRSGRTYYADSVKGRFTISRDNAKNTVYLQMYSLNPEDTAVYYCARYRTQASGYGGYDYWGQGTQATVSS | high polyreactivity |
| QVQLVESAGGLVQAGCSLRLSCAASGSPFGYYAMGWYRQAPGKVRELVAAISRSGVSTYYADSVKGRFTISRDNAKNTFYLQMNSLKPEDTAVYYCDRVRSTPGSYNRFYYWGQGTQVTVSS | high polyreactivity |
| QVQLVESAGGLVQAGGSIRLSCAASGNIFFVYDMGWYRQAPGKERELVAAISWSGGSTYADSVKGRFTISRDNAKNTVYLQMNSLKPEDTAVYYWAASYGVYWYSFWYHVAWLDYWGQGTQVTVSS | low polyreactivity |
